We go through 20 sequences from the DeepSol protein solubility set.

The data set can be described thus: soluble on expression in E. coli; label from the status in PepcDB or PDB records.
Regarding “GPGSMFSGSEGSVRTDDTNVEPPPIPKTRGPLLFEGVRLAGGPPRRTPKRSCSRYFSVTRKTTSAGTDECEHAPPGFSLVNTPSTQDVSPSAKMELPCSAAAHYDDDDDDDDIIPSTAPLPTPHPVMHRVLATGQPNGVSRLLPFDEYVVEEVTPRKCSSISADTSGAAPSTPQGTELREVTQVEEQSPLPAVPEMCESPTRFTLGPRLPVNGEKVRMDFYFLQQEVDAWAKPIETTADVEWHKQHLQETRVAMRSLLHELEVLIAREAAEHERLCIARGFSAMESTSDGKCTYAGETDVVSKTRGKEWKQEELETLEAWRVEKGALLAQKSKLLREHQELQYRLRSHLSGSATGRVTPSPNTSVSRSNKSRGDEGNIGGMSTPLDNGVAQLRLEISEMNAKLKKLEDAYKVLHDNQQWRQGEFDDEYGALCRALATATAGEINNRTALQDTIREAEGVRANCLRQGDASLVSLMERGLSEAKAALKCHDTEQYETK”, the “soluble on expression in E. coli” value is reported as “not soluble”.

“SNAMSGNGNAAATAEENSPKMRVIRVGTRKSQLARIQTDSVVATLKASYPGLQFEIIAMSTTGDKILDTALSKIGEKSLFTKELEHALEKNEVDLVVHSLKDLPTVLPPGFTIGAICKRENPHDAVVFHPKFVGKTLETLPEKSVVGTSSLRRAAQLQRKFPHLEFRSIRGNLNTRLRKLDEQQEFSAIILATAGLQRMGWHNRVGQILHPEECMYAVGQGALGVEVRAKDQDILDLVGVLHDPETLLRCIAERAFLRHLEGGCSVPVAVHTAMKDGQLYLTGGVWSLDGSDSIQETMQATIHVPAQHEDGPEDDPQLVGITARNIPRGPQLAAQNLGISLANLLLSKGAKNILDVARQLNDAH”: the “soluble on expression in E. coli” value was “soluble”.

As for “MGSDKIHHHHHHMKKLRIAQVSPLIESVPPKKYGGTERVVYYLTEGLVERGHEVTLFASGDSATSARLIAPVKESLRLGRKIHSTTIMHMLMLSKVYEEMAGEFDIIHSHLEYLTLPYASCSRTPTVLTMHGRLDLPDYADILKRYSSMAWVSISDSQRAPVPDINWVGTIYHGYPENLFEFNPDPEDYFLYLGRFSEEKRPDEAIRLARACKIHLKLAAKIDTADKAYFKAKVEPLLDSPYIEYVGEVGDSRKGELLRNAKALLNTIDWPEPFGLVMIEALACGTPVIVRRCGSSPEVITHGVTGFICDSQLDFIRAIHNIGTISRIACRREFEQRFTLRHMVDNYETLYRKVIAASSATDSLSSLP”, the “soluble on expression in E. coli” value is reported as “not soluble”.

Turning to “MSLSGKENPNICFLPTATGDADEVIERFYNAKLSENVTHFPLFKFDAGWKETLFEQDIIYVGGGNTRSMLAIWREWGIDRILKQCYEQGIIICGMSAGAICWFEFAVTDSDPEAYQVMRCLGLIDGLAAAHFSHVGEKFEVFQAFARSQPSITCYGIHDYAALHFVDGKLLATVTSFPDAGVLVKTGNDENILRGEGHHHHHH”, the “soluble on expression in E. coli” value was “not soluble”.

Consider “MEKMHITNQEHDAFVKSHPNGDLLQLTKWAETKKLTGWYARRIAVGRDGEVQGVAQLLFKKVPKLPYTLCYISRGFVVDYSNKEALNALLDSAKEIAKAEKAYAIKIDPDVEVDKGTDALQNLKALGFKHKGFKEGLSKDYIQPRMTMITPIDKNDDELLNSFERRNRSKVRLALKRGTTVERSDREGLKTFAELMKITGERDGFLTRDISYFENIYDALHEDGDAELFLVKLDPKENIAKVNQELNELHAEIAKWQQKMETSEKQAKKAQNMINDAQNKIAKNEDLKRDLEALEKEHPEGIYLSGALLMFAGSKSYYLYGASSNEFRDFLPNHHMQYTMMKYAREHGATTYDFGGTDNDPDKDSEHYGLWAFKKVWGTYLSEKIGEFDYILNQPLYQLIEQVKPRLTKAKIKISRKLKRK”, for which the “soluble on expression in E. coli” value is on record as “not soluble”.

Turning to “SVCLFALQIPHDEAQLLALLQQVVQSHPSFKIEVRRRDKLFACNSSAFKKYLALQLWEKYQLKGKLVDPAITVHVEVTKEHFLIISES”, the “soluble on expression in E. coli” value was “not soluble”.

Regarding “MFPMNYSLIDLSAIECPESDLFIEGVVLAANLATRPLDPEQWLPELFTEQHQALLQPVTEQIHRQYQLLKGNGYDLLALLAEHAPSRKQGLADFAEGFMQLWPQVEPMWQQGAFADGSIRMLQALLTTLMLAIDEAQTQAQMREAGYEQVPALADLIEQLNLMVHEVALAADEAMLGAKAQSVNPFKGIGRNDACPCDSGKKFKQCCGQ”, the “soluble on expression in E. coli” value is listed as “not soluble”.

In the case of “MPEPRCTAIVNFLNLSHSILISIFSVSVMSNYHHNHNYQHRPRGYERLPGKRLPDRWNIYDNVGRDIDGTRFVPFKTPLDSSFFDGKNMPVELQFGVKTLISLAQQANKQIGLVIDLTNTDRYYKKTEWADHGVKYLKLNCPGHEVNEREDLVQDFINAVKEFVNDKENDGKLIGVHCTHGLNRTGYLICRYMIDVDNYSASDAISMFEYYRGHPMEREHYKKSLYEAERKKKYGKSSGKSSGNSADSTISSEQLHRNNSQ”, the “soluble on expression in E. coli” value is “not soluble”.

Turning to “MGSDKIHHHHHHLTRREVVGLKLGDLMPRDLLKQELFVQDLKSHINDNVEIILKIRSKKLQETKDSKKFLIMTLEDRTGTVRAVDWYNAELNDQRLKEGNVVRVKGRVVFFENRIQINVDNDYGAIKILKSDEYDYTKFVAQSKKDLEILKKKLFVLLDQIKDQHYKKLLKAFFENKEFSEKFFRSPAGMRVHHAYIGGLLEHSVTVAEICKEISKYYSLDRDLLITGALLHDVGKVEEYRITESGIEVTTEGELKGHIAIGAAMVREMAKKLSIPEHKILELEHIILSHHGELEWGSPVVPKTIEALIVHHVENLDSKIARFIEVMESSESNQGWTEYDRNLGRRIFLRGGGTIVSLTV”, the “soluble on expression in E. coli” value was “not soluble”.

Consider “MLFDSHAHYDNKRFDEDRFEVIKKAYDSGVSYILNAAADMASSLETVSLTRKFDFIYGAVGVHPHEVAKMSDDDIEKLKDFAKEEKIVAIGEIGLDYYYDFSPREQQKLWFARQINLAKELNLPIIVHDRDAHKDVLDIVKAEQAKDVGGVFHCYSGSVEMLKDVLENNFYISVGGTLTFKNAKRVVEVVERVPLDRLLIETDCPYLTPEPHRGKRNDSSYVRLVAEKIAKIRGMSFEEVAEITTNNAKRLFGIK”, for which the “soluble on expression in E. coli” value is “not soluble”.

Regarding “MMNISHKDHHNDQEISDANRDWWDSDAQRYHNDHAAYLNGFHWCPEMLPEREAHLLGDISGLNVLEIGCGSAPCSRWLFDNYDAFVTGFDLSMGMLRHSPTDVPLTQADAVNLPYKDSSFDIAFSAFGAFPFIENLGPVLKDIARCLKPHGKLVFSTNHPMRWIFPDDPTEIGLCAELSYFDRSYTERDKNGKITYAEFHRTMGDWIELLNASGFIIDRLIEPEWPTNLTETWGQWSPLRGRIFPGTAIFVTHCR”, the “soluble on expression in E. coli” value was “not soluble”.

As to “SALTCEVCVLTVPVVSNSTPGSLYVVATPIGNLDDMSVRALKVLREVALIAAEDTRHSARLMQHFGISTPLAACHEHNERDEGSRFITRLLAGDDVALISDAGTPLISDPGYHLVRQARAVGVPVVP”, the “soluble on expression in E. coli” value was “not soluble”.

For the sequence “MSLTVSFVRIDDRMIHGQTVTRWAKEYPCDGLIAVNDAAAKNKVLIQAYKGASDKKTFVWSKEAFAAKSQKVSDSDSRYFLITKNPVDMKEILVDQGFVPGEVKEIIVGPANDRPGAVKLGNNQSITQEEADAIEAIEKAGYKVKFQLLPDVSIGYWSDFKGKFGEGHHHHHH”, the “soluble on expression in E. coli” value is reported as “soluble”.

Turning to “MSTHFGYKTVEADKKADLVAGVFHSVAAKYDIMNDVMSFGIHRFWKRYTIEVSGARPGMKVLDLAGGTGDLTAKFSHLVGDKGEVVLADINDSMLKVGRTKLRDRGIVSNVSYVQANAEALPFPDNHFDIITIAFGLRNVTDKDAALRSMNRVLKPGGKLLVLEFSKPQHEVMRKVYDLYSFKVLPKMGQLITKDADSYEYLAESIRMHPDQDTLKQMMVDAGFEQVDYTNMTDGIVALHRGYKLEHHHHHH”, the “soluble on expression in E. coli” value is “not soluble”.

With “MGSDKIHHHHHHMSYLKISDTIVETFRFIHYEQSNFLNRLHGGDMLFFLVETGMISASKVAMGTTLLASLDDVVFKKPVRLGDIVKVRAKTVYIGNTSLEVEVRAFVRDEEVVSAYATYVKVDDLLRPTPVNVKIMAESEDDKRKIDEAKKRRENRLSKIVNRQKMRFYVDDITDGLRYRISNVIHVSPELTYDGRIMSAGKLLKLMDDLGGIICLRYLDHNSSNLYDNSFNAVVTVAVKGLAFYSPIRLNDIILIRAGLVYVGNTSADILINVVREDLNGAKEHVATAYFTYVRVDKDGKPIKIPEYTPVTEREKRLYEEALTRRGLRK”, the “soluble on expression in E. coli” value is recorded as “not soluble”.

As to “HIWLFFIEEGKNHYRVEFRSNGINVREVALKYGGGGHIQASGAVLKSKRDIIRVVQD”, the “soluble on expression in E. coli” value is on record as “not soluble”.

“MGSDKIHHHHHHMVQVDNTFYDGSAYDPETVRFFDVAQEGAQVRQIGGLVAQGALSAFEGLRPRSVVVMLDGQIHRSCVRLVETLHSPMRQPLVITSTLPHYIGALDVLIVITDNGADEKALKALITASQRGVATLLIGPSSGPLIDESPQDTFVLPTLPTAAGLSPARIVASISTLLDLLEADPSIISDRLEHLADCIDEEVESLSPERDELVNPGRKLRAYVDHARIVHTGRTDVGLAIANVIAPIWTRRGLVSAVLDFPELMESLPELRGPEPITDDIFHDPFIDDEPGVVPFRAVVWAEEEPGIPDAMAQSCDGPSKGALTQALRLLVRGQSATTYSIEEKDL”: the “soluble on expression in E. coli” value was “not soluble”.

In the case of “MAHHHHHHMLRVSCRFFGALQEIFSRGQGVWNLDFGNSPTTEDLIFNSAPKTSTPPFHVLDLEGNIVNKINEPVVPKETLVKIMETMIRSNTIDNILLEAQRQGRISFYLTALGEEATVVGTAAGLEIRDEAFLQYREAGFLLYRGYNIPQLVAQCMGNVEDVLKGRQMPIHYGSRELNVHMVSSPLATQIPHAAGAGYAFRLENEELSDESKSRVAVVIFGEGAASEGDFHGGVNFAAATGSNTLFVVRNNGYAISTPARVQYKGDGVLARGIGYGIPSARVDGQDVLAILQAVQQARQIIRTTNQPVLIEALCYRLQHHSSSDDSGMYRSSDEIENFLALSPLDRFEKFLVKRDLWTAEHTGALAKQVREELLQELRRQELLPHWPADVMHDDVYKVKTPDLVKAQKELQAHYERNRGFYGK”, the “soluble on expression in E. coli” value is “not soluble”.

As to “MTITKLAWRDLVPDTDSYQEIFAQPHLIDENDPLFSDTQPRLQFALEQLLHTRASSSFMLAKAPEESEYLNLIANAARTLQSDAGQLVGGHYEVSGHSIRLRHAVSADDNFATLTQVVAADWVEAEQLFGCLRQFNGDITLQPGLVHQANGGILIISLRTLLAQPLLWMRLKNIVNRERFDWVAFDESRPLPVSVPSMPLKLKVILVGERESLADFQEMEPELSEQAIYSEFEDTLQIVDAESVTQWCRWVTFTARHNHLPAPGADAWPILIREAARYTGEQETLPLSPQWILRQCKEVASLCDGDTFSGEQLNLMLQQREWREGFLAERMQDEILQEQILIETEGERIGQINALSVIEFPGHPRAFGEPSRISCVVHIGDGEFTDIERKAELGGNIHAKGMMIMQAFLMSELQLEQQIPFSASLTFEQSYSEVDGDSASMAELCALISALADVPVNQSIAITGSVDQFGRAQPVGGLNEKIEGFFAICQQRELTGKQGVIIPTANVRHLSLHSELVKAVEEGKFTIWAVDDVTDALPLLLNLVWDGEGQTTLMQTIQERIAQASQQEGRHRFPWPLRWLNWFIPN”, the “soluble on expression in E. coli” value is “soluble”.

Consider “MPQYKLYYFNLRGWAEPARQLFKLAHVEFEDVRIENGTPEWGALKPKTPFGQLPFLSVDGFEIPQSAAILRYLAKKFGYAGKTSEEEAWVDAIVDQFKDFVTPLRQLIMAQRSGNAEEIERIQKEVFAPARDTFFKILNGILEKSKSGFLVGDGVTWADLVIADILTTMEMLGVFDKHGEEQKLAALREKVNEIPEIKEHNSSRPDSVV”, for which the “soluble on expression in E. coli” value is recorded as “not soluble”.
